Assays:
[1] = GES enzyme assay (conversion of [1-3H]-GDP, hexane-extractable product counted by scintillation); format: biochemical; details: GES purification from gland of basil “Sweet Dani” cultivar
Protocol: GES activity was assayed by incubating 5 μl of the enzyme sample in a final volume of 50 μl buffer containing 50 mM Hepes-KOH, pH 8.0, 1 mM DTE, 0.5 mM MnCI2, 20 mM MgCl2, 10% glycerol and 54 μM [1-3H]-GDP (specific activity 20 Ci/mol, American Radiolabeled Chemicals, St. Louis, Mo.). After incubation for 30 mm at […], 160 μl hexane was added to the tube, and vortexed briefly and centrifuged to separated the phases. The hexane layer was directly placed into a scintillation vial containing 2 ml of nonaqueous scintillation fluid (Econo-Safe, Research Products International, Mount Prospect Ill.). This extraction procedure was repeated twice and the total hexane phase was counted by Liquid Scintillation counter (LS-6500 model, Beckman Coulter, Fullerton, Calif.). Boiled enzyme extracts were used as controls.

[2] = Identification of enzymatic products of GES with GDP by SPME GC-MS; format: biochemical; details: SPME gas chromatogram of the reaction solution, peak identified by MS
Protocol: GES enzyme assays were also performed by adding 100 μl of enzyme solution with 900 μl assay solution containing 54 μM non-radioactive GDP (Echelon Research Laboratories, Salt Lake City, Utah) and the same buffer described above. The reactions were carried out in an 8 mL DuPont autosampler vial with a white solid-top polypropylene cap (Alltech, Deerfield, Ill.). After letting the reaction proceed for 2-4 hr at 32° C., the liberated compounds were collected with a solid-phase microextraction (SPME) device PDMS-100 with a polydimethylsiloxane fiber (Supelco, Bekkefonte, Pa.) by inserting the fiber into the tube and leaving it in for 20 mim at 42° C. After this incubation step, the solid-phase microextraction fiber was directly injected into the GC-MS.

B1: Superose12: geraniol synthase purified from basil glands after Superose 12 size exclusion chromatography (protein, UniProt Q6USK1 64-567, looked up)
Geraniol synthase, …: QHMEESSSKRREYLLEETTRKLQRNDTESVEKLKLIDNIQQLGIGYYFEDAINAVLRSPFSTGEEDLFTAALRFRLLRHNGIEISPEIFLKFKDERGKFDESDTLGLLSLYEASNLGVAGEEILEEAMEFAEARLRRSLSEPAAPLHGEVAQALDVPRHLRMARLEARRFIEQYGKQSDHDGDLLELAILDYNQVQAQHQSELTEIIRWWKELGLVDKLSFGRDRPLECFLWTVGLLPEPKYSSVRIELAKAISILLVIDDIFDTYGEMDDLILFTDAIRRWDLEAMEGLPEYMKICYMALYNTTNEVCYKVLRDTGRIVLLNLKSTWIDMIEGFMEEAKWFNGGSAPKLEEYIENGVSTAGAYMAFAHIFFLIGEGVTHQNSQLFTQKPYPKVFSAAGRILRLWDDLGTAKEEQERGDLASCVQLFMKEKSLTEEEARSRILEEIKGLWRDLNGELVYNKNLPLSIIKVALNMARASQVVYKHDQDTYFSSVDNYVDALFFTQ
In the case of B1, the Total activity ([1]; activity of the fraction after the named purification step) is reported as 337.2 ptat, the Specific activity ([1]; activity per mg protein after the named purification step) is reported as 6244.2 pkat/mg and the “Products of the reaction catalyzed by purified GES with GDP” value [2] is reported as “Only a single peak was observed, identified as geraniol”.

Reference: US8124375B2, “Geraniol synthase, methods of production and uses thereof” (The Regents Of The University Of Michigan, priority 2003, dated 2012)
